In patent publication US20240270821A1, “GIP/GLP1/GCG TRI-RECEPTOR AGONISTS AND USES THEREOF” (priority 2023, published 2024):

T1: human GIP receptor (human) (UniProt P48546)
T1 sequence (looked up): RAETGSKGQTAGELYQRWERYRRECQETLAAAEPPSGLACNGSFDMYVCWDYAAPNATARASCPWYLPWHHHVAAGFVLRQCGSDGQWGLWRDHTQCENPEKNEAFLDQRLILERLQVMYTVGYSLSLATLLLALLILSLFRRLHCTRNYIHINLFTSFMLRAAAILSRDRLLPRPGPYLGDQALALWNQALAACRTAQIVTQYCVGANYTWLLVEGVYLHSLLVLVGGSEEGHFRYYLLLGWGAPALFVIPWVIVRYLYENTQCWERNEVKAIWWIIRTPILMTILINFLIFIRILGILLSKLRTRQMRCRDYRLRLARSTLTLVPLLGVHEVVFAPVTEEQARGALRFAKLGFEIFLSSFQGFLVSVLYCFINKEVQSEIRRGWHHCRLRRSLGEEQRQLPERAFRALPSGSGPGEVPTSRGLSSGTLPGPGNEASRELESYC

B1: Example 924 (peptide)
chain: YXQGTFTSDXSQXLDKKAQXAFIEYLIEXGPSSGAPPPSGSE
modifications: C-terminal amide; lysine acylated with γ-Glu-C18 diacid; synthetic construct; SITE 2: note = 2-Aminoisobutyric Acid; SITE 10: note = 3-(4-Pyridyl)-L-alanine; SITE 13: note = alpha-methyl-leucine; SITE 17: note = Lysine is chemically modified through conjugation of the epsilon-amino group of the Lysine side chain with D-Glutamic acid-(gamma-Glu)-CO-(CH2)16
B2: Example 927 (peptide)
chain: YXQGTFTSDXSQXLDKKAQXAFIEYLIEXGPSSGAPPPSGSE
modifications: Aib, 4Pal, Me4Pal, alpha-methyl-Leu, lipidated Lys, amide; synthetic construct; SITE 2: note = 2-Aminoisobutyric Acid; SITE 10: note = 3-(4-Pyridyl)-L-alanine; SITE 13: note = alpha-methyl-leucine; SITE 17: note = Lysine is chemically modified through conjugation of the epsilon-amino group of the Lysine side chain with D-Glutamic acid-(gamma-Glu)-D-Glutamic
B3: Example 926 (peptide)
chain: YXQGTFTSDXSQXLDKKAQXAFIEYLIEXGPSSGAPPPSGSE
modifications: γGlu-C18 diacid on Lys; non-natural residues; amide; synthetic construct; SITE 2: note = 2-Aminoisobutyric Acid; SITE 10: note = 3-(4-Pyridyl)-L-alanine; SITE 13: note = alpha-methyl-leucine; SITE 17: note = Lysine is chemically modified through conjugation of the epsilon-amino group of the Lysine side chain with (gamma-Glu)-(D-Glutamic acid)2-CO-(CH2)
B4: Example 925 (peptide)
chain: YXQGTFTSDXSQXLDKKAQXAFIEYLIEXGPSSGAPPPSGSE
modifications: acylated lysine γGlu-C18 diacid; non-natural residues; C-terminal amide; synthetic construct; SITE 2: note = 2-Aminoisobutyric Acid; SITE 10: note = 3-(4-Pyridyl)-L-alanine; SITE 13: note = alpha-methyl-leucine; SITE 17: note = Lysine is chemically modified through conjugation of the epsilon-amino group of the Lysine side chain with (D-Glutamic acid)2-(gamma-Glu)-CO-(CH2)
B5: Example 905 (peptide)
chain: YXQGTFTSDXSKXLDKKAQXAFIEYLIEXGPSSGAPPPSGSEE
modifications: synthetic construct; SITE 2: note = 2-Aminoisobutyric Acid; SITE 10: note = 3-(4-Pyridyl)-L-alanine; SITE 13: note = alpha-methyl-leucine; SITE 17: note = Lysine is chemically modified through conjugation of the epsilon-amino group of the Lysine side chain with (gamma-Glu)2-CO-(CH2)16-CO2H; SITE 20:
B6: Example 930 (peptide)
chain: YXQGTFTSDXSQXLDKKAQXAFIEYLIEXGPSSGAPPPSGSEE
modifications: acylated Lys γGlu-(e)2-C18 diacid; non-natural residues; C-terminal amide; synthetic construct; SITE 2: note = 2-Aminoisobutyric Acid; SITE 10: note = 3-(4-Pyridyl)-L-alanine; SITE 13: note = alpha-methyl-leucine; SITE 17: note = Lysine is chemically modified through conjugation of the epsilon-amino group of the Lysine side chain with (gamma-Glu)-(D-Glutamic acid)2-CO-(CH2)
B7: Example 931 (peptide)
chain: YXQGTFTSDXSQXLDKKAQXAFIEYLIEXGPSSGAPPPSGSEE
modifications: acylated Lys e-γGlu-e-C18 diacid; non-natural residues; C-terminal amide; synthetic construct; SITE 2: note = 2-Aminoisobutyric Acid; SITE 10: note = 3-(4-Pyridyl)-L-alanine; SITE 13: note = alpha-methyl-leucine; SITE 17: note = Lysine is chemically modified through conjugation of the epsilon-amino group of the Lysine side chain with D-Glutamic acid-(gamma-Glu)-D-Glutamic
B8: Example 929 (peptide)
chain: YXQGTFTSDXSQXLDKKAQXAFIEYLIEXGPSSGAPPPSGSEE
modifications: non-natural residues, γGlu-C18 diacid acyl on K, C-terminal amide; synthetic construct; SITE 2: note = 2-Aminoisobutyric Acid; SITE 10: note = 3-(4-Pyridyl)-L-alanine; SITE 13: note = alpha-methyl-leucine; SITE 17: note = Lysine is chemically modified through conjugation of the epsilon-amino group of the Lysine side chain with (D-Glutamic acid)2-(gamma-Glu)-CO-(CH2)
B9: Example 928 (peptide)
chain: YXQGTFTSDXSQXLDKKAQXAFIEYLIEXGPSSGAPPPSGSEE
modifications: acylated lysine γGlu-C18 diacid; non-natural residues; C-terminal amide; synthetic construct; SITE 2: note = 2-Aminoisobutyric Acid; SITE 10: note = 3-(4-Pyridyl)-L-alanine; SITE 13: note = alpha-methyl-leucine; SITE 17: note = Lysine is chemically modified through conjugation of the epsilon-amino group of the Lysine side chain with D-Glutamic acid-(gamma-Glu)-CO-(CH2)16
B10: Example 907 (peptide)
chain: YXQGTFTSDXSKXLDKKAQXAFIEYLIEXGPSSGAPPPSGS
modifications: synthetic construct; SITE 2: note = 2-Aminoisobutyric Acid; SITE 10: note = 3-(4-Pyridyl)-L-alanine; SITE 13: note = alpha-methyl-leucine; SITE 17: note = Lysine is chemically modified through conjugation of the epsilon-amino group of the Lysine side chain with (gamma-Glu)2-CO-(CH2)16-CO2H; SITE 20:
B11: Example 913 (peptide)
chain: YXQGTFTSDFSQXLDKKAQXAFIEXLIEXGPSSGAPPPSGS
modifications: non-natural residues; acylated Lys C18 diacid; C-term amide; synthetic construct; SITE 2: note = 2-Aminoisobutyric Acid; SITE 13: note = alpha-methyl-leucine; SITE 17: note = Lysine is chemically modified through conjugation of the epsilon-amino group of the Lysine side chain with (2-[2-(2-Amino-ethoxy)-ethoxy]-acetyl)-(gamma-Glu)-CO-(CH2) 16-CO2H; SITE 20: n
B12: Example 952 (peptide)
chain: YXQGTFTSDXSXXLDKKAQXAFIEXLIEGGPSSGAPPPSGS
modifications: acylated Lys, C-terminal amide, non-natural residues; synthetic construct; SITE 2: note = 2-Aminoisobutyric Acid; SITE 10: note = 3-(4-Pyridyl)-L-alanine; SITE 12: note = L-ornithine; SITE 13: note = alpha-methyl-leucine; SITE 17: note = Lysine is chemically modified through conjugation of the epsilon-amino group of the Lysine side chain with (gamma-Gl)
B13: Example 911 (peptide)
chain: YXQGTFTSDXSQXLDXKAQXAFIEXLLEGGPSSGAPPPSGS
modifications: acylated Lys AEEA-γGlu-C18 diacid; non-natural residues; C-terminal amide; synthetic construct; SITE 2: note = 2-Aminoisobutyric Acid; SITE 10: note = 3-(4-Pyridyl)-L-alanine; SITE 13: note = alpha-methyl-leucine; SITE 16: note = L-ornithine; SITE 17: note = Lysine is chemically modified through conjugation of the epsilon-amino group of the Lysine side chain with (2-[2-(2-
B14: Example 912 (peptide)
chain: YXQGTFTSDFSKXLDKKAQXAFIEXLIEXGPSSGAPPPSGS
modifications: non-natural residues, AEEA-γGlu-C18 diacid lysine acylation, C-terminal amide; synthetic construct; SITE 2: note = 2-Aminoisobutyric Acid; SITE 13: note = alpha-methyl-leucine; SITE 17: note = Lysine is chemically modified through conjugation of the epsilon-amino group of the Lysine side chain with (2-[2-(2-Amino-ethoxy)-ethoxy]-acetyl)-(gamma-Glu)-CO-(CH2) 16-CO2H; SITE 20: n
B15: Example 915 (peptide)
chain: YXQGTFTSDXSKXLDKKAQXAFIEYLIEXGPSSGAPPPSGS
modifications: non-natural residues, acylated Lys, C-terminal amide; synthetic construct; SITE 2: note = 2-Aminoisobutyric Acid; SITE 10: note = 3-(4-Pyridyl)-L-alanine; SITE 13: note = alpha-methyl-leucine; SITE 17: note = Lysine is chemically modified through conjugation of the epsilon-amino group of the Lysine side chain with (2-[2-(2-Amino-ethoxy)-ethoxy]-acetyl)
B16: Example 950 (peptide)
chain: YXQGTFTSDXSRXLDKKAQXAFIEXLIEGGPSSGAPPPSGS
modifications: non-natural residues, AEEA-γGlu-C18 diacid lysine acylation, C-terminal amide; synthetic construct; SITE 2: note = 2-Aminoisobutyric Acid; SITE 10: note = 3-(4-Pyridyl)-L-alanine; SITE 13: note = alpha-methyl-leucine; SITE 17: note = Lysine is chemically modified through conjugation of the epsilon-amino group of the Lysine side chain with (2-[2-(2-Amino-ethoxy)-ethoxy]-acetyl)
B17: Example 916 (peptide)
chain: YXQGTFTSDXSKXLDKKAQXAFIEXLIEXGPSSGAPPPSGS
modifications: Aib, 4Pal, αMeL, Me4Pal; lysine acylated C18 diacid; amide; synthetic construct; SITE 2: note = 2-Aminoisobutyric Acid; SITE 10: note = 3-(4-Pyridyl)-L-alanine; SITE 13: note = alpha-methyl-leucine; SITE 17: note = Lysine is chemically modified through conjugation of the epsilon-amino group of the Lysine side chain with (2-[2-(2-Amino-ethoxy)-ethoxy]-acetyl)

How the values were obtained:
Assay in all cases: cell-based or functional assay
[1] = biological target: human glucagon receptor (human) (UniProt P47871)
[2] = biological target: T1, human GIP receptor (human)
[3] = biological target: hGLP-1R (Homo sapiens, UniProt P43220)
Sequence of hGLP-1R (P43220 24-463): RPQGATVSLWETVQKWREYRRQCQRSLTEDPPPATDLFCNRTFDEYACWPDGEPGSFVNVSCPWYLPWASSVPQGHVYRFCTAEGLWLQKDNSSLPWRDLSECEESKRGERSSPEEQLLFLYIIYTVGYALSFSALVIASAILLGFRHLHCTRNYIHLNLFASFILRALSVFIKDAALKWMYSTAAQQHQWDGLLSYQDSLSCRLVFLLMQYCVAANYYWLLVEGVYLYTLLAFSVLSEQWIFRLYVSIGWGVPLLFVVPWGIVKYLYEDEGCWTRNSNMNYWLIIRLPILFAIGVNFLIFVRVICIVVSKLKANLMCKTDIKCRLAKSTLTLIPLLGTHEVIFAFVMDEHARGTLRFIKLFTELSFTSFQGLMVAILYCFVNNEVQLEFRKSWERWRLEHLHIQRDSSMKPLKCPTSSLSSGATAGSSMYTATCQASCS

Sequence of human glucagon receptor (human) (P47871 26-477): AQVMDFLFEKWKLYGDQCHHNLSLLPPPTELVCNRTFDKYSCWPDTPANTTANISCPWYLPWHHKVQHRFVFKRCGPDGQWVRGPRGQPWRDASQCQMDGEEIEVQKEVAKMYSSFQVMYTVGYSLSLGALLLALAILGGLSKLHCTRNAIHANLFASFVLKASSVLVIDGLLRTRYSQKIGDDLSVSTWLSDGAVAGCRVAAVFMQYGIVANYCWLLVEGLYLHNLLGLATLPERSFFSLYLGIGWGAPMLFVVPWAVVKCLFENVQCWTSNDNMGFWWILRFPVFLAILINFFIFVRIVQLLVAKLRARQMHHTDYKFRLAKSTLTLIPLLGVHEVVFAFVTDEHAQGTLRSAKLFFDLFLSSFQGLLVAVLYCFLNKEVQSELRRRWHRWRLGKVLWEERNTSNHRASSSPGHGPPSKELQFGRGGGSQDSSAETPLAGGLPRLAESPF

Binder | cAMP Rel EC50 (1% HSA) [1] [nM] | cAMP Rel EC50 (1% HSA) [2] [nM] | cAMP Rel EC50 (1% HSA) [3] [nM] | Relative cAMP EC50 [1] [nM] | Relative cAMP EC50 [2] [nM] | Relative cAMP EC50 [3] [nM] | cAMP Rel EC50, nM (1% HSA) [1] [nM] | cAMP Rel EC50, nM (1% HSA) [2] [nM] | cAMP Rel EC50, nM (1% HSA) [3] [nM]
B1 | 910 | 15.7 | 402 | – | – | – | – | – | –
B2 | 1210 | 22.2 | 584 | – | – | – | – | – | –
B3 | 1380 | 13.5 | 600 | – | – | – | – | – | –
B4 | 2500 | 23 | 708 | – | – | – | – | – | –
B5 | 1390 | 10.4 | 215 | 12.3 | 0.217 | 2.52 | – | – | –
B6 | 1700 | 19.9 | 824 | – | – | – | – | – | –
B7 | 2300 | 20.8 | 878 | – | – | – | – | – | –
B8 | 2690 | 22.6 | 593 | – | – | – | – | – | –
B9 | 1090 | 15.1 | 604 | – | – | – | – | – | –
B10 | 1210 | 8.86 | 123 | 5.79 | 0.103 | 1.15 | – | – | –
B11 | 1140 | 5.62 | 258 | – | – | – | – | – | –
B12 | – | – | – | – | – | – | 266 | 16.6 | 439
B13 | 2390 | 26.6 | 255 | – | – | – | – | – | –
B14 | 955 | 6.15 | 59.6 | – | – | – | – | – | –
B15 | 174 | 15.3 | 226 | – | – | – | – | – | –
B16 | – | – | – | – | – | – | 327 | 18.1 | 328
B17 | 158 | 4.78 | 166 | – | – | – | – | – | –
